Measurements from a protein production outcome set (Wang et al. 2014).

Experiment: label from the status in PepcDB records

| Sequence | protein production |
| --- | --- |
| MTTTMSTLPVVLVDEILARVPITSLRSLRSTCKKWEASSKTNLVGGKATARKSSHVGFILIGDKICSMKLDLNGGDDFVDTSVNQVSAFDGFAISQLFHCDGLLFCISNNHYSNYTLMVCNMYLGETRLIQNRSLFESYQNFCSYAFGYDSSKNRNHKILRNNSVSGGYEIYSLKSDSWKDLNVDLEKSIHLWRLGSVSLKGNAYFRVIKVIEEGVWEYNLLCFDFTRESFGKLLSLPFESLGDEGEGIMVISCVRDDHLAVLYQRDTLGIWISTEIEPNKVSWREFLQVDLATLDGFPDVFIAGRFIVDEEKQVVVVFGQETELDLNHGNAFIFGRDGYFTSFTVGDAPPEDFTSYVPSLVSLQIDKTGKRKARDD | failed |
| MTTTTAQPAASLAAALEHAERLLEVDPVMAAEQARAILEVVPRHADTTRVLAAAQRLSGDAEGGLATVAPLAMALPNLPLAQLELALCLERLGRTAEAARAFDRVSALEPRLSEAWRGLSESLELLGDRQGAERALARQLRASTRDPLLVEAATALAEDRLGEAERLLRDRLKADAGDVAAIRMLAETGARLGRYADAEALLTRCMELAPNFAAARHNLATMLYRQNKNLEALAQIEQLVAKDARHPGYANLYAAILARLGEYDRAIAVYGQVLADYPNQPKGWMSYGHALKTVGRQADSVAAYRKALDLAPTLGEVWWSLANLKTVRFTPEDLAAMSQALEAEGLSEDDRLHLHYALGKAQEDAQDWDASFQHYAAGAAIRREQLDYDADENTADTVRTKAVFSPAFIAARGGQGCAAPDPIFVVGLPRSGSTLVEQILASHSLVEGTMELPDLIVMARRLGGKTAKRAESTYPESLAELSPEDLRALGEEFLERTRIQRKTDKPFFIDKMPNNFAHTGLIHLILPNAKIIDARRHPLGCCFSGFKQHFARGQAFSYDLTDIGRYYADYVDLMAHFDAVLPGRVHRVIYERMIADPEAEIRALLDHCGLPFEEACLSPHENDRAVRTASSEQVRRPIFKDAVEHWQKFESHLGPLKQALGPVLTAYPDAPVI | failed |
| MTTVAVSSLPQGTSVTLRNVTKSFGTTKVLNGLDLNIHSGELVALLGPSGCGKSTLLRIIAGFEAADQGSVLLDDVDVSGVPTNRRDIGLVFQAYSLFPHLNAVENVMYGLSIRHVAKTEAKSSAVELLASVGLADYADRYPAQLSGGQQQRVALARALATKPRVLLLDEPLSALDAKVRVQLRDEIRALQLETHTTTIMVTHDQEEALVMADRIAVMYNGRFEQVGTPAEIYHSPATAFVAGFVGSMNVLPGVLSTDGTAQTIGCRVPVHAAAGAATLNPGPVDVFVRPEELRLQIANDDLNDHDAVLGTVTSTVLRGAFTSVMVAMGDGLHLRVDLPSKDAQLFTPGCSVMVRIADEPMLCTARRVECVA | failed |
| MTVAPFDTAKLDRLMEEAGIDVIAATSKHNTQYLMGGYKFIFFAAMDAIGHSRYLPMVIYEKGAPDHSAYVGNRMEGAEHQNNPFWTPAVHTATWGTQDAAGLAVEHLKKIGKASGRIGIEPAFLPSDARDLLASRLDGARFVDATHVLERLRAVKTADELAKLRRASELITDSMLATIAAARAGSTKLEIIEQLRREETNRGLHFEYCLLTLGASHNRAGSPQAWAEGEILSIDSGGNYHGYIGDLCRMGVLGEPDAELEDLLAEVERIQQAAFAKVRAGVLGSEMIVAAEAELKASPSAAFTDFFCHGMGLITHEAPFLMTNHPVAYEGIDADKPLEAGNVISVETTMLHPKRGFIKLEDTLAITDKGYEMFGDRGRGLEHHHHHH | failed |
| MTVAQQAPSALNFDCETGNYHTFCPISCVSWLYQKIEDSFFLVIGTKTCGYFLQNAMGVMIFAEPRYAMAELEEGDISAQLKDYEELKRLCLQIKRDRNPSVIVWIGTCTTEIIKMDLEGLAPQLEAEIGIPIVTARANGLDYAFTQGEDTVLASMAHKCPTSAQVQGEDKEERNAIQKLLTFGRKADQEKVESEYVDHQPLVLFGSLPDPVVTNLTLELKKQGVKVSGWLPAKRYTELPVIDEGYYVAGVNPFLSRTATTLMRRRKCKLIGAPFPIGPDGTRAWIEKICSVLGIEPQGLEEREAQIWASLEDYIQLIRGKSVFFMGDNLLEVSLARFLIRCGMTCPEIGIPYMDKRYQAAELALLEKTCSDMGVPLPNIVEKPDNYNQIQRIKALQPDLVITGMAHANPLEAQGINTKWSVEFTFAQIHGFTNARDILELATRPLRRNSQLGELGWDKLIAKDVPAQV | failed |
| MTVITLVLGMLLPAVVSILMLMASTQSRISEEENMMRAGLVEGMGLQVDEVVDALAQSLEVIAANGGADADDATRWTRLLQASRAFGKQFLEFHVANPNGDVISSSASLPEGINVADRAYFSTSLATEGMVASEGLVSRHTGQIALYFALAVRSDEEAHSGVVFAGFNGEVFGDMLRKAGPRSDGLTVFVLDRNGDSVYEHLPSGGRHPVHIPPADLRDCADGRRAWLEFGGTRHAVSVMAKRLATGEAPYLYLLVSTPDESFFSLSTLRGVTPLLLGTLCVALAALAAANRRIVHPLESLTRKVQAIEAGQPLPETAMESVREIGGLQTAVTRMAQAISQREQELAWFATHDDLTGLANRKALHEMLAARLDRLEEGASETVAVIFIDIDRFKAINDSMGHTWGDNVIAAFAARLGAFMHPLHAFCARVGGDEFVVVPDASATHNVVRDTRALLAHLGTPYDINGREVRLSASAGVLFVGDPGESPDVIIRNANAAMHRSKERGFGRISIFRPLHLDSYMLRLDIERELPLAAATGQLHMVYQPIVNASDGSLHSFEALMRWNHPRHGSLSPATFITVAEQTGHVGLLGDFALREAGACVRRFGEAGLLTPGLRFGVNISPAHLMAQDFLSDIESVLDAVSVPGDRITLEVTESALISTGAELMGRLETLAKRGLNFAIDDYGAGYSNIQYLASEHFRVIKIDKSLIDEVHLRDRMRAIVRSTVQLAHSLGCKIVAEGVETHAQANLLARLGCDYLQGYLFSRPVPETDAMRLAIRAMDQGTLLPPEAHPDA | failed |
| MTVKAMALNTNQLFAYLNRGDIAEFKFSPLFTTLFFPNVATFSTQNIMLDTLDIEEVTMSAFCSPMVGSQVQRDKGYETSTIKPGYMKPKHEIDPTKTIMRMAGEDPAQLNDPTYRRMRLITGNMRRQINAIKARVEWLAVNAVTTGKNIIEGEGIERYEIDWKIPEKNIIEQADGKKWSEQDKETHYPIYDIELYADQAGCPANVMIMGAEVWRTLRSFKKFRELYDLSRGSESAAELACKNLGEVVSFKGYLGDLALIVYSGKYTDSDGTEKYFLEPDLLVLGNTNNKGLVAYGAIMDQEAVRTGATQNMFYPKNWIEDGDPAIEYVQTHSAPQPVPADIRKFVTVKIA | not failed |
| MTVLYKGSLKQNNDPFHVTLLSKEHIEQILFLQNVVVEGLEDKSRLQPLSQEEFQYILEGNGMMIGAFIKNELIAFRALLVPPIDDEHLGLDIGLPESELHRVIYQEISNVHPNCRGNGMQKILATVIMDELQKENGKYDYVCCTVAPFNIPSLKDKFSQGMEIAALKEKYGGSMRYVFVKELREDKEKDWTEIKSVPMNNAGGQQALLSEGYRGYEMEKVDEDFVVKFGR | failed |
| MTVNVENVEPELNIEIGPNWFASVMGTGIIANAAVGLPMVGQYLGQAGLVIWVIASLMLIVMLLLKAVQTITNPHIIKRQFNDPVMAQFFGAPPMALLTIAGGTLLFGHHFFAQDTLMVIAWSLWITGTIVGMMTAVIIPYRLFTHHEVRGDAAFGGWLMPVVPPMVSAAIGAMFIPHVQDTLLQQTLLYACYAMFGTSLIAAMIILTLIWGRLVHSGTSGGARVPTLWLVLGPLGQSITAAGALGAVALAVVEQPIAGSLNTMAILYGVPVWGFAFYWSILASFLTLRALRRKMPFALTWWAFTFPVGTCVTGTTQLALHTGLPAFEWAAVILFAGLLCAWVIAALGTIKGIKTGHIMKNPVSSPVIIAKKGPR | failed |
| MTVRVCKMDGEVMPVVVVQNATVLDLKKAIQRYVQLKQEREGGVQHISWSYVWRTYHLTSAGEKLTEDRKKLRDYGIRNRDEVSFIKKLGQK | not failed |
| MTVTATSVDEPEQLEPQAAPASRGARRVRRLVPAAAATLSGVLLYVSFPPRTLWWLALPAFAVLGWALRDRTWKAGLGLGYLFGLGFLLPLLVWTGVEVGPGPWLALAVVEAVFVALVGAGIAMVSRLPAWPLWAAALWIAGEAARARAPFGGFPWGKIAFGQADGVFLPLAAAGGTPVLGFAVVLCGFGLYEIVRQVVDGRRTGVVRRGAAAVALLSVAVPVVGALAARSLVSDKAEDGTATVAVIQGNVPRSGLEFNAQRRAVLDHHARETERLAAKIKAGKVAQPDFVLWPENSSDIDPFTNPDARAVIDSAAKAVGVPISVGGVVERDGKLYNEQILWDPAKGALDTYDKRQVQPFGEYLPLRSLLGAINKNWTSMVRQDFSRGTEPGVFTMAGTKVGLATCYEAAFDWAVRDNITHGAQIISVPSNNATFDRSEMTYQQLAMSRVRAVEHSRTVTVPVTSGVSAVIMPDGKITQKTGMFVADSLVQKVPLRSSQTPATRLGILPEMVLVLVAAGGLGWSVAAVVRGRRNDALQG | failed |
| MTVWRSWRLLGVSGDSKPTDGPVSRFLNRRIASAIASAIIALNLPLTPNMLSLISFLTAAAAALFIAGGQLLVGGLLVQLSSVLDGVDGIVARRLRAASKAGGFLDTMLDRYADTVIYLALAYAAVATHGLETWAVLTAVLAVSGDIMVSYLHTRGERDAGVHPSLVGPLDSLASRDVRLLIVAVITAAGRPLEAMAAVALLSHAYVAVKSIYLFSLLKSKGV | failed |
| MTWKPNVTVAAVIEQDDKYLLVEEIPRGTAIKLNQPAGHLEPGESIIQACSREVLEETGHSFLPEVLTGIYHWTCASNGTTYLRFTFSGQVVSFDPDRKLDTGIVRAAWFSIDEIRAKQAMHRTPLVMQCIEDYHAGKRYPLDILQYYD | not failed |
| MTWLPFIIIIPLFGAFSMPIVSLLKGKAKEIWATIISFTTLMVGIQVFREVWNRGTIVYALGSETPFGKANFPIRIVWEVDKFGAIMVLIITLVSFLAVLYSIEYMKHDTGLEKYYTLILILELGMLGIAITGDIFNFYVFLEIMSIASYALVAFRNDTWEAIEAGIKYMFVGSLASSLVLLGIALLYGQYGTLTMGYLAVKMSENPTIVAKIALSLFLGGLLFKSGASPVHMWLADAHPAAPSSISAMLSGLVIKVGGIYAIARVVFSIFLPAINLATVGWLVIIFACITLIVGNAMAVVQEDMKRLLAYSSVGQIGYILLGLGIGMVAYGSKIGELALAGAIYHIVNHAMMKALLFLVAGAVLHELGTRNLNELSGLAKTMPKTTFAFLIGAAAIVGMPPLNGFASKWLIYESSALFNPIIGSIAIIGTAFCTAAYVRVLFTFFGRPNEKVMRAKDPGALMLIPMFILVIAIILMGIFPWQISDKIMIPAARNLWDITSYVMTLMGGG | failed |
| MTYEAGCGLIKALEDPDNRVRQRAVKTLGKRGNPDVLEDLMEALKDSRQPVQEAASEALRKIIAASDSVPVLVKALDATDRNVRKAAIEALWKAGTPEAIPPLLRELDDADWYLRSRAADALADIASPEAALGLIKVMDIHDSPVKKIIVNALGKIGTVEAVEGLVKALEDLEHHHHHH | failed |
| MTYFASDFQDLDNSGNIENFIRCLELQQSLDLYKYYKQKTFEKMQLKPGDSVLEVGCGTGNDALLLANYVGETGKVTAVDRSQFMLDQARERAKNSTTKFEFVLADAEQLPFPGANFTAARVDRTLQHIAQPQKAIAEMARVVQSNGWVVAFEPDWETLVIDSDQRGVTRAITNFWCDNFPSGWVGRYLFKYFRQAGLTDIAVDPITICLTEFELADKILDLSRTVEKISEQGTISQNDLTLWFKAIDQNDQAGEFFCAFTAFLVRGRKP | failed |
